Data on one molecule can be found in patent US20220185894A1 (F STAR THERAPEUTICS, published 2022).

“And” between values parts separate entries of the source, which are not always exact repeats. Equal values may be shown once.

Assay [1] addresses human PD-L1 expressed on cells (human, UniProt Q9NZQ7 19-290). The assay can be described thus: cell-based or functional assay.
The target of assay [2] is T1, human LAG-3 expressed on cells (human, UniProt P18627 23-525).
T1 construct: also called hLAG-3; DO11.10 hLAG-3
T1 sequence: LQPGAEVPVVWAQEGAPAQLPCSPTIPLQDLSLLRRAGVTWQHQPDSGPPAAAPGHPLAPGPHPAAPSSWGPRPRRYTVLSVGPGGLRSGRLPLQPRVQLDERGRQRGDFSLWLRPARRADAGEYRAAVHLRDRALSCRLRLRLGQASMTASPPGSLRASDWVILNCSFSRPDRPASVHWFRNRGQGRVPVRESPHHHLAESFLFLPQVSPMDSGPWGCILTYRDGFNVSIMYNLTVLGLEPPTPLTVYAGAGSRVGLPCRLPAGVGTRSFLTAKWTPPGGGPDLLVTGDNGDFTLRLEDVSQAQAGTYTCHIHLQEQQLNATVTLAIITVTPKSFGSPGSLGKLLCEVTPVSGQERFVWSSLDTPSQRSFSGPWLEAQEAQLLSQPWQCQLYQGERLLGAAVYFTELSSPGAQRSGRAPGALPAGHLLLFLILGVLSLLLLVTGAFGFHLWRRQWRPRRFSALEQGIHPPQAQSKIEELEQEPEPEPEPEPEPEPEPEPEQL
The assay can be described thus: flow cytometry on HEK cells expressing human LAG-3. The protocol: (§1) The affinity of the mAb² (all containing the LALA mutation) for cell expressed human or cynomolgus LAG-3 was determined using flow cytometry. HEK cells expressing human or cynomolgus LAG-3 grown in DMEM (Life Technologies, 61965-026) containing 10% FBS (Life Technologies, 10270-1-6), 100 μg/ml Hygromycin B (Melford Laboratories Ltd, Z2475), 15 μg/ml Blasticidin (Melford Laboratories Ltd, B1105) and 1 μg/ml Doxycyclin (Sigma, D9891) were detached from tissue culture flasks using cell dissociation buffer (Life Technologies, 13151-014) and seeded in V-bottom 96-well plates (Costar, 3897) at 2×10⁵ cells/well. The plates were centrifuged at 1500 rpm for 3 min at 4° C. to pellet the cells. A dilution series of the mAb² (or control mAb) were incubated with the cells in a 100 μl volume for 1 h at 4° C. The plates were washed and secondary antibody (Anti-human Fc-488, Jackson ImmunoResearch, 109-546-098) was diluted 1:1000 in PBS and 100 μl was added to the cells for 30 min at 4° C. (plates were kept in the dark). The plates were washed and then cells were resuspended in 100 μl PBS containing 1 μg/ml DAPI (Biotium, 40043). The plates were read using Canto II flow cytometer (BD Bioscience). Dead cells were excluded and the fluorescence in the FITC channel (488 nm/530/30) was measured. The data was fit using log (agonist) vs response in GraphPad Prism Software. The plates were read on a BD FACSCanto II cytometer (BD Biosciences) and the data analysed using FlowJo.
(Flow cytometry measures light scatter and fluorescence of single cells or particles in a stream.)

Assay [3] addresses T2, cynomolgus PD-L1 expressed on cells (cynomolgus monkey, UniProt Q9NZQ7 19-290 (human entry)).
T2 construct: also called cPD-L1; cyno PD-L1
Kind of assay: flow cytometry on HEK cells expressing cynomolgus PD-L1. The protocol:
as §1, with “HEK cells” for “The affinity of the mAb² (all containing the LALA mutation) for cell expressed human or cynomolgus LAG-3 was determined using flow cytometry. HEK cells”, “or cynomolgus PD-L1 grown in” for “or cynomolgus LAG-3 grown in”, “control mAb) was incubated with” for “control mAb) were incubated with”, “were washed then cells” for “were washed and then cells”

In assay [4] the target is T3, human PD-L1 Fc (R&D Systems, 156-B7) (human, UniProt Q9NZQ7 19-239).
T3 construct: Bought protein; not shown: Fc tag of the bought fusion protein
Kind of assay: SPR, BIAcore T200; mAb2 captured on Protein L, PD-L1 Fc injected. As for the experimental part:
Protein L (Thermo, 21189) was immobilized on flow cells 1 and 2 of a Series S CM5 chip (GE Healthcare, BR-1005-30) by amine coupling (GE Healthcare, BR-1000-50) to a surface density of 2000 RU by following the manufacturer's instructions for the BIAcore T200 instrument. […] The association time was 3 min and the dissociation time was 6 min. Running buffer was HBS-P (GE Healthcare, BR-1003-68). Both flow cells were regenerated by injecting 10 mM sodium hydroxide (NaOH) at a flow rate of 100 μl/min for 20 seconds. The data were analysed by double referencing against the blank flow cell.
The binding kinetics were fit with a 1:1 Langmuir model to generate binding association (kₐ) and dissociation (kd) rates. Equilibrium binding constants (KD) were calculated by dividing the dissociation rate by the association rate for each sample. Data analysis was performed with BiaEvaluation software version 3.2.

T3 sequence (Q9NZQ7 19-239 limits assumed): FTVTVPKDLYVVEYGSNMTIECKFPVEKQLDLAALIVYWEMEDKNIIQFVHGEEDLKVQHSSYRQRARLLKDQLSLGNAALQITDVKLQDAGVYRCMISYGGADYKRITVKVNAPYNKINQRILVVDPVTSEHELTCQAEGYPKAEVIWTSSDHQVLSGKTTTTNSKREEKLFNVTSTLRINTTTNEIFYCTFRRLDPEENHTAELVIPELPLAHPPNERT
T2 sequence (Q9NZQ7 other isoform, or with tags, fused parts or gaps limits assumed): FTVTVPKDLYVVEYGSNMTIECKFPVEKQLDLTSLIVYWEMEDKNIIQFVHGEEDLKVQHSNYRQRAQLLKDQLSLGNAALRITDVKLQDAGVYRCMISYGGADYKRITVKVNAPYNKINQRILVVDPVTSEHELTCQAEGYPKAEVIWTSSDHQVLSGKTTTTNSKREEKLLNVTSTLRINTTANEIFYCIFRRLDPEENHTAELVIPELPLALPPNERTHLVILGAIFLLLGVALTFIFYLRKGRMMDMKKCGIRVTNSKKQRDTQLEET
human PD-L1 expressed on cells, sequence (Q9NZQ7 19-290 limits assumed): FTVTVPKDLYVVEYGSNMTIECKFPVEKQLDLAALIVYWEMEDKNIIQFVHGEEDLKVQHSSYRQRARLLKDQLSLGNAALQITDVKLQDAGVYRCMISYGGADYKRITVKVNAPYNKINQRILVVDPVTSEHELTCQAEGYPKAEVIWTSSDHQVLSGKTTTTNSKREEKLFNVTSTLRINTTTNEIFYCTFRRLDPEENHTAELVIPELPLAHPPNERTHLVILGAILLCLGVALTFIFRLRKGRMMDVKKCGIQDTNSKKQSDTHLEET

B1: anti-human LAG-3/PD-L1 mAb2 FS18-7-9/84G09 with LALA mutation (bispecific antibody, human IgG1, kappa, L234A L235A)
heavy: EVQLVESGGGLVQPGRSLRLSCAASGFTFDDYAMHWVRQTPGKGLEWVSGISWKSNIIGYADSVKGRFTISRDNAKNSLYLQMNSLRAEDTALYYCARDITGSGSYGWFDPWGQGTLVTVSSASTKGPSVFPLAPSSKSTSGGTAALGCLVKDYFPEPVTVSWNSGALTSGVHTFPAVLQSSGLYSLSSVVTVPSSSLGTQTYICNVNHKPSNTKVDKKVEPKSCDKTHTCPPCPAPEAAGGPSVFLFPPKPKDTLMISRTPEVTCVVVDVSHEDPEVKFNWYVDGVEVHNAKTKPREEQYNSTYRVVSVLTVLHQDWLNGKEYKCKVSNKALPAPIEKTISKAKGQPREPQVYTLPPSWDEPWGEDVSLTCLVKGFYPSDIAVEWESNGQPENNYKTTPPVLDSDGSFFLYSKLTVPYDRWVWPDEFSCSVMHEALHNHYTQKSLSLSPG
light: DIQMTQSPSSLSASVGDRVTITCRASQSISSYLNWYQQKPGKAPKPLIYVASSLQSGVPSSFSGSGSGTDFTLTISSLQPEDFATYYCQQSYSNPITFGQGTRLEIKRTVAAPSVFIFPPSDEQLKSGTASVVCLLNNFYPREAKVQWKVDNALQSGNSQESVTEQDSKDSTYSLSSTLTLSKADYEKHKVYACEVTHQGLSSPVTKSFNRGEC
notes: also called FS18-7-09/84G09LALA; FS18-7-9/84G09 LALA
One may read the EC50 as the concentration giving half of the maximal effect. A higher EC50 goes with a less potent agent. Usually Kd stands for a measure of binding affinity in units of concentration. For orientation: koff means the rate constant with which the complex falls apart. A low value points to a long-lived complex. By kon is commonly meant the second-order rate constant of association. Consider B1, for which the “Maximal IL2 release calculated as % ctrl (84G09 + 25F7)” value in assay [1] was 65.9%. In assay [2], this molecule yielded an EC50 of 3.18 nM. The EC50 in assay [3] is 1.67 nM and 1.81 nM. In assay [4], this molecule displayed a dissociation constant (Kd) of 1 nM, a koff of 0.00039 s⁻¹ and an on-rate (kon) of 380000 M⁻¹ s⁻¹.
